Assay results from patent publication US7985567B2, “Host cells and methods for producing 3-methyl-2-buten-1-ol, 3-methyl-3-buten-1-ol, and 3-methyl-butan-1-ol” (The Regents of the University of California, priority 2007, dated 2011).

Test system: S. cerevisiae BY4741 transformed with pESC expressing a reductase candidate gene
Assay: Screening of reductase candidates for reduction of 3-methyl-2-butenol to 3-methyl-butanol
Assay type: cell-based, Saccharomyces cerevisiae
Details: 3-methyl-2-butenol 1 g/l; relative to controls; FIGS. 4 and 5
Experimental: To identify enzymes with the capability to catalyze the reduction 3-methyl-2-butenol to 3-methyl-butanol the following assay system was employed. 5 ml of synthetic defined medium lacking leucine with 1.8% galactose and 0.2% glucose was inoculated with an overnight culture of S. cerevisiae BY4741 freshly transformed with a vector (pESC) expressing a reductase candidate gene to achieve a final absorbance of 0.5 at 600 nm (A600). The cultures were grown at 30° C. at 200 r.p.m. After 48 hours, 3-methyl-2-butenol (1 g/l) was added to the culture.
Cultures were sampled for isopentanol production after addition of 3-methyl-2-butenol as described in Example 3.

Molecule | isopentanol production from 3-methyl-2-butenol by yeast over-expressing the reductase
OYE3: Old yellow enzyme family reductase of S. cerevisiae, gene locus YPL171c (protein, UniProt P41816 2-400, looked up) NADPH dehydrogenase 3: PFVKGFEPISLRDTNLFEPIKIGNTQLAHRAVMPPLTRMRATHPGNIPNKEWAAVYYGQRAQRPGTMIITEGTFISPQAGGYDNAPGIWSDEQVAEWKNIFLAIHDCQSFAWVQLWSLGWASFPDVLARDGLRYDCASDRVYMNATLQEKAKDANNLEHSLTKDDIKQYIKDYIHAAKNSIAAGADGVEIHSANGYLLNQFLDPHSNKRTDEYGGTIENRARFTLEVVDALIETIGPERVGLRLSPYGTFNSMSGGAEPGIIAQYSYVLGELEKRAKAGKRLAFVHLVEPRVTDPSLVEGEGEYSEGTNDFAYSIWKGPIIRAGNYALHPEVVREQVKDPRTLIGYGRFFISNPDLVYRLEEGLPLNKYDRSTFYTMSAEGYTDYPTYEEAVDLGWNKN | significant increase in isopentanol production
OYE2: Old yellow enzyme family reductase of S. cerevisiae, gene locus YHR179w (protein, UniProt Q03558 2-400, looked up) NADPH dehydrogenase 2: PFVKDFKPQALGDTNLFKPIKIGNNELLHRAVIPPLTRMRAQHPGNIPNRDWAVEYYAQRAQRPGTLIITEGTFPSPQSGGYDNAPGIWSEEQIKEWTKIFKAIHENKSFAWVQLWVLGWAAFPDTLARDGLRYDSASDNVYMNAEQEEKAKKANNPQHSITKDEIKQYVKEYVQAAKNSIAAGADGVEIHSANGYLLNQFLDPHSNNRTDEYGGSIENRARFTLEVVDAVVDAIGPEKVGLRLSPYGVFNSMSGGAETGIVAQYAYVLGELERRAKAGKRLAFVHLVEPRVTNPFLTEGEGEYNGGSNKFAYSIWKGPIIRAGNFALHPEVVREEVKDPRTLIGYGRFFISNPDLVDRLEKGLPLNKYDRDTFYKMSAEGYIDYPTYEEALKLGWDKN | significant increase in isopentanol production
